Experimental data published in patent publication US10562935B2, “Stapled peptides and uses thereof” (London Health Sciences Centre Research Inc., priority 2015, dated 2020).
Bridges are numbered along the chain shown (N, C = ends).

Experiments:
[1] = test system: RHAMM-overexpressing (LR21) cells; assay: Cell invasion assay (Boyden chamber with MATRIGEL, Chemicon ECM555); type: cell-based; conditions: 10 ng/mL peptide; 20 hours; compared to 30% serum control
Method: Compounds 132, 133, 135, 150-153, 156, 265-269, and 275-278 were evaluated for their ability to inhibit cellular invasion. Invasion assays were performed using Chemicon Assay Kits ECM555 (Invasion); Billerica, Mass., USA) according to the manufacturer's protocol. Invasion assays are performed in an identical manner as the migration assays described above in Example 5, except that cells are required to invade through a layer of extracellular matrix (MATRIGEL) coating the filter that separates the upper and lower Boyden chambers. Briefly, sub-confluent cultures of RHAMM-overexpressing (LR21) cells were serum starved overnight before plating 7.5×10^4 cells in the upper chamber of a Boyden chamber either in the presence or absence of 10 ng/mL of peptide. 30% fetal bovine serum in DMEM was used as the chemo-attractant in the lower chamber. The number of cells that had crossed the membrane after 20 hours was assessed using the CYQUANT® GR Dye and lysis buffer solution provided in the kit. Fluorescence was measured with a fluorescent plate reader using 480/520 nm filter set.
Values the mean and SDM of n=3 replicates. *p<0.05, **p<0.01, ***p<0.001 All statistics compared to 30% serum control. In FIG. 49, where bars are labeled with two compound numbers (“152/135”) this means that the data were pooled for the indicated compound, i.e., for the non-acetylated and acetylated versions of the indicated peptide.

[2] = Circular dichroism (CD) spectroscopy of HABD2 peptides in Milli-Q water (Example 1); type: physicochemical; conditions: for [θ]222/[θ]208 ratio of ellipticities / fH fraction helicity / Molar ellipticity [θ]192 / Molar ellipticity [θ]208 / Molar ellipticity [θ]222: 0.5 mM in Milli-Q water; for fH fraction helicity: equations 1-3; for α-helical character by CD (in words): Milli-Q water; for Molar ellipticity [θ]192: λ = 192 nm; for Molar ellipticity [θ]208: λ = 208 nm; for Molar ellipticity [θ]222: λ = 222 nm
From the text: In addition, a large mean residue ellipticity indicates greater α-helical character. […] This was predicted to be the case, as there is a lack of contributing residues that might form a hydrophobic core, thereby helping to stabilize the secondary structure of the linear peptide. For this reason, bridges were introduced into the peptides. […] The differences in α-helicity induced by the bridges placed at different points within each peptide may be due to the differences in their primary sequences. Specifically, two amino acids (at the i and i+4 position) have to be replaced in order to form the lactam bridge. In compound 133, leucine was replaced at both the i and i+4 position; while in compound 136, glutamine was replaced at the i position and aspartic acid was replaced at i+4. Leucine and glutamine are proposed to be helix-stabilizing residues.
A larger portion of the RHAMM protein was used as the reference for α-helical character of the truncated peptides. 7 kDa RHAMM (SEQ ID NO: 1) is a mini protein that is composed of 62 amino acids, which was derived from the C-terminus of the full-length RHAMM sequence. It contains both HABDs, and is predicted to have almost complete α-helix shape, similar to that of native full-length RHAMM.
A peptide's α-helicity can be quantified using equations 1-3: fH=[([θ]obs222−[θ]c)/([θ]max222−[θ]c)] (Equation 1) [θ]c=2220+53T (Equation 2) [θ]max222=(−44000+250T)(1−k/N) (Equation 3) where fH is the ratio of the average number of helical hydrogen bonds divided by the total number of hydrogen bonds that can be found in a peptide, T is the temperature in degrees Celsius, N is the number of residues in the peptide and k is a constant of ellipticity when 100% of the structure is α-helical (3 for carboxyamidated peptides).
Milli-Q water was chosen as the solvent in which all peptides would be dissolved for CD spectroscopy, as it is a UV invisible solvent, which is a requirement of the analytical technique, and it represents RHAMM's natural environment in the body. Luo and Baldwin [18] stated that when peptides are taken out of their native protein sequence, they usually show little to no helical formation in water alone. For this reason, TFE/H2O solutions are commonly used in studies to observe the α-helix characteristics, and may improve the helical nature of the peptides observed here. However, a helix-stabilizing solvent, such as TFE, would not be as contextually relevant, as there are no solvent stabilizing effects in the body. Thus use of TFE would tend to produce skewed results and not be representative of the peptide's natural behavior.

[3] = test system: NF-κB; assay: Inflammation assay: NF-κB inducible SEAP reporter in RAW-Blue macrophages stimulated with PAM3CSK4; type: cell-based, murine; conditions: 10 ng/mL peptide with 200 ng/mL PAM3CSK4; 18 hours; compared to +PAM3
Method: Compounds 132, 133, 135, 150, 152, 157-161, 265-269, 275, 277, and 278 were evaluated for their ability to inhibit inflammation. To determine the effect of the peptides on inflammation, commercially available murine RAW 264.7 macrophages carrying a secreted embryonic alkaline phosphatase (SEAP) reporter that is inducible by NF-κB (RAW-Blue; InvivoGen, San Diego, Calif., USA) were used. Cells were grown to 80% confluence in DMEM containing 4.5 g/L glucose, 10% heat-inactivated fetal bovine serum, 2 mM L-glutamine, 50 μg/mL penicillin/streptomycin, 100 μg/mL Normocin (InvivoGen) at 37° C. in 5% CO2. For peptide screening experiments, cells were scraped in growth medium, counted, and plated to flat-bottom 96-well plates at a density of 5×10^4 cells/well either in the presence or absence (control) of 200 ng/mL TLR1/TLR2 agonist PAM3CSK4 (InvivoGen). Peptides were added in 6 replicate wells at a dose of 10 ng/mL in the presence of PAM3CSK4. After 18 hours of stimulation, SEAP concentrations (indicating NF-κB activity) were measured in the supernatants collected from the RAW-Blue cells using QUANTI-BLUE reagent (InvivoGen). After 20 minutes of incubation at 37° C., SEAP levels were determined using spectrophotometry at a wavelength of 630 nm.
Values are the mean and SDM of n=3 replicates. *p<0.05 and ***p<0.001 compared to +PAM3. In FIGS. 44 and 45, where bars are labeled with two compound numbers (“133/150” and “135/152”) this means that the data were pooled for the indicated compounds, i.e., for the non-acetylated and acetylated versions of the indicated peptides.

[4] = test system: RHAMM-overexpressing (LR21) cells; assay: Cell migration assay (Boyden chamber, Chemicon ECM510); type: cell-based; conditions: 10 ng/mL peptide; 20 hours; compared to 30% serum control
Method: Compounds 132, 133, 150-152, 156-161, 265-269, 275, 277, and 278 were evaluated for their ability to inhibit cell migration. Cell migration assays were performed using Chemicon Assay Kits (ECM510 (Migration); Billerica, Mass., USA) according to the manufacturer's protocol. Briefly, sub-confluent cultures of RHAMM-overexpressing (LR21) cells were serum starved overnight. 7.5×10^4 cells were then plated in the upper chamber of a Boyden chamber. either in the presence or absence of 10 ng/mL of peptide. 30% fetal bovine serum in DMEM was used as the chemo-attractant in the lower chamber. The number of cells that had crossed the membrane after 20 hours was assessed using the CYQUANT GR Dye and lysis buffer solution provided in the kit. Fluorescence was measured with a fluorescent plate reader using a 480/520 nm filter set.
Values are the mean and SDM of n=3 replicates. *p<0.05, **p<0.01. All statistics compare to 30% serum control. In FIGS. 41-43, where bars are labeled with two compound numbers (“133/150” and “135/152”) this means that the data were pooled for the indicated compounds, i.e., for the non-acetylated and acetylated versions of the indicated peptides.

H-(cyclo-6,10)-VSKLR[EQLVK]RKQN-NH2 (H-VSKLREQLVKRKQN-NH2; lactam 6-10; SMILES CC(C)C[C@H](NC(=O)[C@H](CCCCN)NC(=O)[C@H](CO)NC(=O)[C@@H](N)C(C)C)C(=O)N[C@@H](CCCNC(=N)N)C(=O)N[C@H]1CCC(=O)NCCCC[C@@H](C(=O)N[C@@H](CCCNC(=N)N)C(=O)N[C@@H](CCCCN)C(=O)N[C@@H](CCC(N)=O)C(=O)N[C@@H](CC(N)=O)C(N)=O)NC(=O)[C@H](C(C)C)NC(=O)[C@H](CC(C)C)NC(=O)[C@H](CCC(N)=O)NC1=O) [Compound 135]
inhibition of cellular invasion (in words) [1]: significantly inhibited cellular invasion
[θ]222/[θ]208 ratio of ellipticities [2]: 0.55
fH fraction helicity [2]: 0.22
α-helical character by CD (in words) [2]: increase in α-helix structure
Molar ellipticity [θ]192 [2]: 1245.85 deg cm^2 dmol^−1 residue^−1
Molar ellipticity [θ]208 [2]: −7906.16 deg cm^2 dmol^−1 residue^−1
Molar ellipticity [θ]222 [2]: −4400.73 deg cm^2 dmol^−1 residue^−1
inhibition of inflammation (SEAP / NF-κB activity, in words) [3]: significantly inhibited inflammation
inhibition of cell migration (in words) [4]: significantly inhibit cell migration

H-(cyclo-4,8)-VSK[ERSQK]VKRKQN-NH2 (H-VSKERSQKVKRKQN-NH2; lactam 4-8; SMILES CC(C)[C@H](N)C(=O)N[C@@H](CO)C(=O)N[C@@H](CCCCN)C(=O)N[C@H]1CCC(=O)NCCCC[C@@H](C(=O)N[C@H](C(=O)N[C@@H](CCCCN)C(=O)N[C@@H](CCCNC(=N)N)C(=O)N[C@@H](CCCCN)C(=O)N[C@@H](CCC(N)=O)C(=O)N[C@@H](CC(N)=O)C(N)=O)C(C)C)NC(=O)[C@H](CCC(N)=O)NC(=O)[C@H](CO)NC(=O)[C@H](CCCNC(=N)N)NC1=O) [Compound 133]
inhibition of cellular invasion (in words) [1]: significantly inhibited cellular invasion
[θ]222/[θ]208 ratio of ellipticities [2]: 0.45
fH fraction helicity [2]: 0.17
α-helical character by CD (in words) [2]: did not seem to stabilize
Molar ellipticity [θ]192 [2]: 1733.35 deg cm^2 dmol^−1 residue^−1
Molar ellipticity [θ]208 [2]: −5010.81 deg cm^2 dmol^−1 residue^−1
Molar ellipticity [θ]222 [2]: −2260.92 deg cm^2 dmol^−1 residue^−1
inhibition of cell migration (in words) [4]: significantly inhibit cell migration
